We go through five proteins from patent US20020081638.

Data set [1] addresses N-terminus of human CENP-A peptide.
Data set [2] deals with N-terminus of rat macro-H2A peptide.
Data set [3] concerns the target free histones (mixture of H1, H3, H2B, H2A and H4; Boehringer Mannheim).
Data set [4] has as its target mutant H3 (K9L) N-terminal peptide.
Data set [5] addresses wild-type N-terminus of human histone H3 peptide (aa 1-20).

“And” between values parts separate entries of the source, which are not always exact repeats. Identical values can stand only once.

B1: GST-Suv39h1(82-412), murine (protein)
chain: CIRVLKQFHKDLERELVRRHRRSKPPRHLDPNLANYLVQKAKQRRALQRWEQELNAKRSHLGRITVENEVDLDGPPRSFVYINEYRVGEGITLNQVAVGCECQDCLLAPTGGCCPGASLHKFAYNDQGQVRLKAGQPIYECNSRCCCGYDCPNRVVQKGIRYDLCIFRTNDGRGWGVRTLEKIRKNSFVMEYVGEIITSEEAERRGQIYDRQGATYLFDLDYVEDVYTVDAAYYGNISHFVNHSCDPNLQVYNVFIDNLDERLPRIAFFATRTIWAGEELTFDYNMQVDPVDMESTRMDSNFGLAGLPGSPKKRVRIECKCGTTACRKYLF
In the case of B1, the “in vitro methylation of peptides, SDS-PAGE and fluorography” value in [1] was “no signals were detected with the CENP-A or macroH2A peptides, or with insulin”; in data set [2] it was “no signals were detected with the CENP-A or macroH2A peptides, or with insulin”; with insulin (Sigma) it was “no signals were detected with the CENP-A or macroH2A peptides, or with insulin”; in data set [4], “the mutated H3 (K9L) peptide was not a substrate”; in [5], “These in vitro assays revealed selective methylation of the wild-type H3 peptide”. Moreover, in [3], the “in vitro HMTase assay, fluorography of 14C-methyl label” value (from here on “in vitro HMTase assay, fluorography”) is “A purified GST-product comprising aa 82-412 maintained HMTase activity (although at a reduced level as compared to transfected SUV39H1)”. Further, the “in vitro methylation of individual histones, fluorography” value was “A weak signal is present if H1 was used as the sole substrate” with histone H1; “no signals are detected with H2A, H2B or H4” with histone H2A; “no signals are detected with H2A, H2B or H4” with histone H2B; “H3 is specifically methylated by GST-Suv39h1(82-412)” in the data set with histone H3; “no signals are detected with H2A, H2B or H4” with histone H4. In data set [5], the “3H-incorporation of individual amino acids by microsequencing of the in vitro methylated peptide” value was “The results confirmed selective transfer of methyl-label to lysine 9”.

B2: (myc)3-Nchromo (aa 3-118), C-terminally truncated human SUV39H1 (protein)
chain: ENLKGCSVCCKSSWNQLQDLCRLAKLSCPALGISKRNLYDFEVEYLCDYKKIREQEYYLVKWRGYPDSESTWEPRQNLKCVRILKQFHKDLERELLRRHHRSKTPRHLDPSLANYL
Turning to B2, the “in vitro HMTase assay, fluorography” value in [3] is “no signals were detected with extracts from a HeLa cell line that expresses only the N-terminal third of SUV39H1 (aa 3-118)”.

B3: GST-CLR4(127-490), S. pombe (protein)
chain: KQSTALTTNDTSIILDDSLHTNSKKLGKTRNEVKEESQKRELVSNSIKEATSPKTSSILTKPRNPSKLDSYTHLSFYEKRELFRKKLREIEGPEVTLVNEVDDEPCPSLDFQFISQYRLTQGVIPPDPNFQSGCNCSSLGGCDLNNPSRCECLDDLDEPTHFAYDAQGRVRADTGAVIYECNSFCSCSMECPNRVVQRGRTLPLEIFKTKEKGWGVRSLRFAPAGTFITCYLGEVITSAEAAKRDKNYDDDGITYLFDLDMFDDASEYTVDAQNYGDVSRFFNHSCSPNIAIYSAVRNHGFRTIYDLAFFAIKDIQPLEELTFDYAGAKDFSPVQSQKSQQNRISKLRRQCKCGSANCRGWLFG
For B3, the in vitro HMTase assay with free histones, activity against recombinant SUV39H1 product in data set [3] was 3 fold and 5 fold.

B4: GST-Suv39h1(7-221), murine (protein)
chain: GCSVCCKSSWNQLQDLCRLAKLSCPALGVSKKNLYDFEVEYLCDYKKIREQEYYLVKWRGYPDSENTWEPRQNLKCIRVLKQFHKDLERELVRRHRRSKPPRHLDPNLANYLVQKAKQRRALQRWEQELNAKRSHLGRITVENEVDLDGPPRSFVYINEYRVGEGITLNQVAVGCECQDCLLAPTGGCCPGASLHKFAYNDQGQVRLKAGQPIYE
Consider B4, for which the “in vitro HMTase assay, fluorography” value in data set [3] was “a purified GST-product comprising aa 7-221 proved negative, even at higher protein concentrations”.

B5: (myc)3-SUV39H1 (aa 3-412), triple myc-tagged full-length human SUV39H1 (protein)
chain: ENLKGCSVCCKSSWNQLQDLCRLAKLSCPALGISKRNLYDFEVEYLCDYKKIREQEYYLVKWRGYPDSESTWEPRQNLKCVRILKQFHKDLERELLRRHHRSKTPRHLDPSLANYLVQKAKQRRALRRWEQELNAKRSHLGRITVENEVDLDGPPRAFVYINEYRVGEGITLNQVAVGCECQDCLWAPTGGCCPGASLHKFAYNDQGQVRLRAGLPIYECNSRCRCGYDCPNRVVQKGIRYDLCIFRTDDGRGWGVRTLEKIRKNSFVMEYVGEIITSEEAERRGQIYDRQGATYLFDLDYVEDVYTVDAAYYGNISHFVNHSCDPNLQVYNVFIDNLDERLPRIAFFATRTIRAGEELTFDYNMQVDPVDMESTRMDSNFGLAGLPGSPKKRVRIECKCGTESCRKYLF
With B5, in the data set with histone H3, the “in vitro HMTase assay, fluorography” value is on record as “indicating selective transfer of the methyl-label to H3”.
